Results from patent publication US20090137485A1, “Antigens Targeted by Pathogenic T Cells in Type 1 Diabetes and Uses Thereof” (priority 2005, published 2009).

Tests used:
HLA-A2 molecule = HLA-A2 molecule (Homo sapiens, UniProt P04439, D140Y/D185E/D98H/E176V/E277Q/G131W/G231S/I119V/I121R/I166T/I218V/L300P/L318F/N151K/N90K/P208A/P217A/Q86G/Q94H/R138H/R169H/T345S); details: from the literature (Panagiotopoulos et al., 2003; Regner et al., 1996); cited from earlier work
[1] = target: T1, human HLA-A2 MHC class I molecule (HLA-A*0201) on T2 cells (human); experiment: descriptor in the legend of an IFN-gamma ELISPOT figure (T2 cells as APC)
T1 construct: Surface HLA-A2 was read with FITC anti-HLA-A2 mAb BB7.2; also called HLA-A2.1

[2] = target: T1, human HLA-A2 MHC class I molecule …; experiment: peptide library screen; HLA-A2 restriction on T2 cells

binding result [1]	Molecule	also measured
	KLQVFLIVL [PreproIAPP5-13]	binding to HLA-A2 (HLA-A2 molecule): HLA-A2-binding
binds	VLFGLGFAI (also called murine IGRP 265-273) [mIGRP265-273 (VLFGLGFAI)]	
binds	ALIPYCVHM (also called murine IGRP 337-345) [mIGRP337-345 (ALIPYCVHM)]	
	FGIDLLWSV (also called murine IGRP 228-236) [mIGRP228-236 (FGIDLLWSV)]	binding result [2]: binds
